Here are results for one molecule from US20190002515A1 (published 2019).

The target of the assay is T1, GAGE-1 peptide on HLA-DRA*01:01 / HLA-DRB5*01:01 (human).
T1 peptide: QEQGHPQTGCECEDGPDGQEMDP
In words: cytokine release.

B1: TCR specific for GAGE-1 of SEQ ID NOs 7 and 8 (TCR, V domains shown)
Valpha: EDKVVQSPLSLVVHEGDTVTLNCSYEVTNFRSLLWYKQEKKAPTFLFMLTSSGIEKKSGRLSSILDKKELSSILNITATQTGDSAIYLCAERTQGGSEKLVFGKGTKLTVNP
Vbeta: DAGITQSPRHKVTETGTPVTLRCHQTENHRYMYWYRQDPGHGLRLIHYSYGVKDTDKGEVSDGYSVSRSKTEDFLLTLESATSSQTSVYFCATQRNTEAFFGQGTRLTVV
With B1, the binding result is “recognises”.
